From the supplement of paper PMC9876800

Tested on: peptide library, one residue held at a place counted from the S/T acceptor
Assay: relative phosphorylation of the sub-library (ratio to the mean residue at this position); higher = residue favoured
Details: human
In short: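 Human or orthologue kinase constructs, purified and recombinant, were incubated under kinase-specific conditions in 384-well plates with biotinylated degenerate peptide sub-libraries. Each sub-library fixed one residue at one position around a central Ser/Thr. Incubations lasted 90 min with peptides at 50 μM and 50 μM ATP spiked with γ-32P-ATP, after which spots on streptavidin membranes were phosphorimaged and quantified by densitometry. Relative sub-library phosphorylation is a ratio to the mean residue at that position.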

ROCK2, construct: aa5-554, sequence (O75116 5-554, looked up): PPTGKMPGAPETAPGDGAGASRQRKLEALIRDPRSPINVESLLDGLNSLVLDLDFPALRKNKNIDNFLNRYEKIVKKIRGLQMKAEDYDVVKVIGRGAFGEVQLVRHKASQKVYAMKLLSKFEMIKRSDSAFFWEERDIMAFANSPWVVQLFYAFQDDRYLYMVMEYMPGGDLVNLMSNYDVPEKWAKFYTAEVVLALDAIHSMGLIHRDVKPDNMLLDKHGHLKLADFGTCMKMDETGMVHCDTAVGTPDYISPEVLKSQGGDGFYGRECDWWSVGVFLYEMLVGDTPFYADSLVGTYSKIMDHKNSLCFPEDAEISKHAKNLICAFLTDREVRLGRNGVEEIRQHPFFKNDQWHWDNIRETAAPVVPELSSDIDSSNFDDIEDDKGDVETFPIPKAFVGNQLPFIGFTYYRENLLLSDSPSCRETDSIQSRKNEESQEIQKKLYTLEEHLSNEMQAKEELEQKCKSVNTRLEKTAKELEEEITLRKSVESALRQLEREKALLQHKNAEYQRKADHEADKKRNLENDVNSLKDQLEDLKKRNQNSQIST

ROCK2, construct: aa5-554 (from UniProt O75116)
relative phosphorylation
Details | at +1 | at +2 | at +3 | at +4 | at -1 | at -2 | at -3 | at -4 | at -5
A fixed | 0.695 | 1.01 | 0.926 | 0.921 | 0.75 | 0.607 | 0.647 | 0.938 | 1
D fixed | 0.471 | 0.48 | 0.757 | 0.745 | 0.406 | 0.263 | 0.297 | 0.58 | 0.562
E fixed | 0.455 | 0.51 | 0.614 | 0.751 | 0.301 | 0.251 | 0.28 | 0.613 | 0.471
F fixed | 0.69 | 0.707 | 0.962 | 1.1 | 0.559 | 0.474 | 0.341 | 0.622 | 0.679
G fixed | 0.957 | 0.876 | 1.73 | 1.31 | 1.08 | 0.706 | 0.724 | 1.22 | 1.19
H fixed | 0.984 | 1.16 | 1.25 | 1.1 | 1.16 | 1.42 | 1.59 | 1.13 | 1.25
I fixed | 1.49 | 1.29 | 0.948 | 0.984 | 0.482 | 0.3 | 0.281 | 0.516 | 0.692
K fixed | 1.19 | 1.44 | 0.998 | 1.2 | 2.77 | 2.71 | 2.57 | 2.3 | 2.45
L fixed | 1.48 | 1.08 | 0.952 | 0.886 | 0.912 | 0.391 | 0.304 | 0.504 | 0.494
M fixed | 1.52 | 0.743 | 0.876 | 0.929 | 0.792 | 0.446 | 0.361 | 0.707 | 0.571
N fixed | 1.43 | 0.734 | 0.931 | 1.04 | 1.15 | 0.937 | 0.637 | 0.836 | 0.779
P fixed | 0.266 | 0.935 | 1.28 | 1.29 | 1.28 | 0.665 | 0.785 | 1.19 | 1.04
Q fixed | 1.51 | 0.75 | 0.835 | 0.946 | 1.09 | 0.801 | 0.651 | 0.904 | 0.865
R fixed | 1.77 | 1.81 | 0.97 | 1.07 | 2.2 | 5.27 | 6.24 | 2.89 | 2.83
V fixed | 0.908 | 1.48 | 0.835 | 0.727 | 0.619 | 0.321 | 0.297 | 0.555 | 0.641
W fixed | 0.616 | 0.922 | 1.08 | 1.09 | 0.528 | 0.762 | 0.53 | 0.822 | 0.736
Y fixed | 0.564 | 1.07 | 1.06 | 0.914 | 0.929 | 0.681 | 0.461 | 0.673 | 0.758
pThr fixed | 0.595 | 0.566 | 0.556 | 0.763 | 0.336 | 0.465 | 0.494 | 0.755 | 0.805
pTyr fixed | 0.409 | 0.592 | 0.736 | 0.663 | 0.386 | 0.338 | 0.435 | 0.489 | 0.705

MKNK2, construct: Full length (from UniProt Q9HBH9)
relative phosphorylation
Details | at +1 | at +2 | at +3 | at +4 | at -1 | at -2 | at -3 | at -4 | at -5
A fixed | 0.742 | 1 | 0.937 | 0.945 | 1.12 | 0.903 | 0.8 | 1.28 | 1.23
D fixed | 0.22 | 0.453 | 0.406 | 0.728 | 0.37 | 0.24 | 0.239 | 0.284 | 0.221
E fixed | 0.385 | 0.465 | 0.433 | 0.79 | 0.369 | 0.24 | 0.449 | 0.359 | 0.272
F fixed | 1.36 | 0.807 | 0.936 | 0.895 | 0.555 | 0.439 | 0.453 | 0.721 | 0.949
G fixed | 0.506 | 0.739 | 1.58 | 1.08 | 1.04 | 0.958 | 1.53 | 1.54 | 1.05
H fixed | 1.06 | 1.71 | 1.32 | 1.22 | 1.24 | 0.874 | 1.07 | 1.02 | 0.898
I fixed | 1.35 | 0.818 | 0.664 | 0.756 | 0.417 | 0.368 | 0.365 | 0.716 | 1.11
K fixed | 1.02 | 0.875 | 1.89 | 1.62 | 3.14 | 2.06 | 3.1 | 1.75 | 1.4
L fixed | 1.17 | 0.781 | 0.923 | 0.745 | 0.741 | 0.421 | 0.439 | 0.909 | 1.47
M fixed | 1.73 | 0.915 | 0.942 | 0.849 | 0.887 | 0.427 | 0.617 | 0.898 | 0.976
N fixed | 0.667 | 0.797 | 0.76 | 0.94 | 0.96 | 0.956 | 0.847 | 0.911 | 0.648
P fixed | 0.24 | 0.44 | 0.931 | 1.21 | 0.284 | 0.571 | 1.48 | 1.58 | 1.49
Q fixed | 1.59 | 0.904 | 1.1 | 1.13 | 1.2 | 0.835 | 0.957 | 0.884 | 0.767
R fixed | 1.19 | 1.29 | 1.34 | 1.05 | 2.77 | 6.1 | 3.21 | 1.79 | 1.23
V fixed | 1.19 | 0.981 | 0.703 | 0.861 | 0.566 | 0.5 | 0.401 | 0.749 | 1.47
W fixed | 1.17 | 1.39 | 0.974 | 1.16 | 0.531 | 0.491 | 0.475 | 0.713 | 0.876
Y fixed | 1.41 | 2.63 | 1.15 | 1.03 | 0.818 | 0.615 | 0.574 | 0.899 | 0.942
pThr fixed | 0.649 | 0.492 | 0.516 | 0.736 | 0.203 | 0.304 | 0.47 | 0.562 | 0.572
pTyr fixed | 0.783 | 0.714 | 0.604 | 0.782 | 0.285 | 0.356 | 0.568 | 0.647 | 0.642

MAP3K9, construct: aa132-413 (from UniProt P80192)
relative phosphorylation
Details | at +1 | at +2 | at +3 | at +4 | at -1 | at -2 | at -3 | at -4 | at -5
A fixed | 0.832 | 0.66 | 0.89 | 0.949 | 0.791 | 0.914 | 1.07 | 1.13 | 1.12
D fixed | 0.308 | 0.362 | 0.612 | 0.652 | 1.02 | 1.23 | 1.16 | 1.57 | 1.45
E fixed | 0.492 | 0.46 | 0.619 | 0.719 | 0.854 | 1.03 | 1.38 | 1.45 | 1.3
F fixed | 1.61 | 0.594 | 1.44 | 0.823 | 1.19 | 1.33 | 1.14 | 0.824 | 0.978
G fixed | 0.686 | 0.727 | 0.991 | 1.02 | 0.525 | 0.932 | 1.21 | 1.18 | 1.13
H fixed | 1.23 | 1.66 | 1.28 | 0.995 | 1.3 | 1.13 | 1.1 | 0.955 | 0.984
I fixed | 1.3 | 0.627 | 0.865 | 0.842 | 0.899 | 0.715 | 0.785 | 0.734 | 0.887
K fixed | 1.19 | 2.81 | 1.59 | 1.94 | 1.07 | 0.523 | 0.688 | 0.998 | 0.882
L fixed | 0.969 | 0.598 | 1.11 | 0.841 | 1.08 | 0.824 | 0.792 | 0.759 | 0.737
M fixed | 1.28 | 0.522 | 0.995 | 0.952 | 1.25 | 0.931 | 0.863 | 0.929 | 0.827
N fixed | 0.689 | 0.836 | 0.797 | 0.946 | 1.1 | 1.07 | 1.04 | 0.951 | 1.08
P fixed | 0.208 | 0.36 | 0.501 | 1.04 | 0.775 | 1.57 | 1.15 | 0.99 | 0.9
Q fixed | 1.2 | 0.907 | 0.741 | 0.943 | 0.924 | 1.08 | 0.925 | 0.934 | 0.901
R fixed | 1.55 | 3.45 | 1.47 | 1.8 | 1.26 | 0.817 | 0.946 | 1.14 | 1.05
V fixed | 1.49 | 0.602 | 0.796 | 0.767 | 0.873 | 0.701 | 0.798 | 0.83 | 0.908
W fixed | 1.19 | 0.687 | 1.19 | 1.05 | 0.969 | 1.13 | 0.881 | 0.892 | 0.907
Y fixed | 0.772 | 1.13 | 1.12 | 0.72 | 1.13 | 1.07 | 1.08 | 0.745 | 0.958
pThr fixed | 0.825 | 0.703 | 0.677 | 1.01 | 0.976 | 1.23 | 1.83 | 1.55 | 1.57
pTyr fixed | 0.628 | 0.376 | 0.709 | 0.622 | 1.29 | 1.19 | 1.54 | 1.02 | 1.54
